The results in this text go back to patent CN111848800A (SANYOU BIOPHARMACEUTICALS CO LTD, dated 2020).

The target of assay [1] is T1, 鼠PD-L1 (全长蛋白, on CHO-s cells) (mouse, UniProt Q9EP73 19-290).
T1 construct: whole, on cells; also called 小鼠PD-L1-CHO; 鼠PD-L1-CHO
The assay is described as follows: FACS on mouse PD-L1-CHO cells, PE anti-human IgG Fc.

Assay [2] deals with T2, B7-DC recombinant protein (义翘神州 10292-H08H-B) (UniProt Q9BQ51 20-219).
T2 sequence (looked up): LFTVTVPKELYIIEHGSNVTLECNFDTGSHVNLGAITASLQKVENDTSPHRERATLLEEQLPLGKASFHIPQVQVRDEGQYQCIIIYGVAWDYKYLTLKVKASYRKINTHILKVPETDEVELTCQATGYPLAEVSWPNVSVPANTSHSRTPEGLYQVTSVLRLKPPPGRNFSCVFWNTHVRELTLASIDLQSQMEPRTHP
The assay is described as follows: ELISA, protein coated at 2 μg/mL, anti-human IgG Fc-HRP; N/A means 未检出结合活性. A general note: An ELISA detects its analyte on a solid surface through an enzyme-linked reagent.

The target in assay [3] is T3, B7-H2 recombinant protein (义翘神州 11559-H08H) (UniProt O75144 19-258).
T3 sequence (looked up): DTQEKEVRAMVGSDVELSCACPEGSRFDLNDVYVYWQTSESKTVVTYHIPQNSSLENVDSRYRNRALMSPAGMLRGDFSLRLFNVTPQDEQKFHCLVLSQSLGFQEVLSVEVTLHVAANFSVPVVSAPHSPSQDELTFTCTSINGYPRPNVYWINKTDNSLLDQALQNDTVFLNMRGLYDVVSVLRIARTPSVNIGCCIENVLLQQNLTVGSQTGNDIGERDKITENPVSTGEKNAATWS
The assay is described as above.

The target of assay [4] is T4, B7-H3 recombinant protein (义翘神州 11188-H08H) (UniProt Q5ZPR3 29-461).
T4 sequence (looked up): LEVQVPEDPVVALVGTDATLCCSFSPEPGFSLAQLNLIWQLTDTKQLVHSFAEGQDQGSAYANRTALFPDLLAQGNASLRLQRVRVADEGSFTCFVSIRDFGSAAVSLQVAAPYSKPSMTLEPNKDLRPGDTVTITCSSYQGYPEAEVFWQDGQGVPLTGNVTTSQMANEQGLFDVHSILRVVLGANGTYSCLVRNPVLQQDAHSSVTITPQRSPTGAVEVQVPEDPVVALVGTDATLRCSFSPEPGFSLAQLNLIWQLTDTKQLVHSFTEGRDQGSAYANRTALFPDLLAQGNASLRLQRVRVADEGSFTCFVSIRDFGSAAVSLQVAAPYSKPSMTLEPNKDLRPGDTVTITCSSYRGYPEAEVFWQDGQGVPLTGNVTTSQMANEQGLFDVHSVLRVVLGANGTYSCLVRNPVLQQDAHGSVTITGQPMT
The assay is described as above.

The target in assay [5] is T5, B7-H4 recombinant protein (义翘神州 10738-H08H) (UniProt Q7Z7D3 25-258).
T5 sequence (looked up): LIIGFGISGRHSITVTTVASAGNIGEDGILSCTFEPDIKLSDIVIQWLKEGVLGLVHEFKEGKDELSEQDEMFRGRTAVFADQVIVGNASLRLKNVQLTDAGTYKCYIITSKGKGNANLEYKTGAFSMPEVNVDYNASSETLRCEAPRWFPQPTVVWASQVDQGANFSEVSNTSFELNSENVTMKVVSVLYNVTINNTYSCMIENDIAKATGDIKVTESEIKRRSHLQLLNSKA
The assay is described as above.

Assay [6] deals with T6, 恒河猴PD-L1 (全长蛋白, on CHO-s cells) (rhesus monkey, UniProt F6VEW6 19-290).
T6 construct: whole, on cells; also called 猴PD-L1-CHO
The assay is described as follows: FACS on monkey PD-L1-CHO cells.

The target in assay [7] is T7, 人PD-L1 (全长蛋白, on cells) (human, UniProt Q9NZQ7 19-290).
T7 construct: whole, on cells; also called 人PD-L1-CHO; PD-L1-CHO
T7 sequence (Q9NZQ7 19-290): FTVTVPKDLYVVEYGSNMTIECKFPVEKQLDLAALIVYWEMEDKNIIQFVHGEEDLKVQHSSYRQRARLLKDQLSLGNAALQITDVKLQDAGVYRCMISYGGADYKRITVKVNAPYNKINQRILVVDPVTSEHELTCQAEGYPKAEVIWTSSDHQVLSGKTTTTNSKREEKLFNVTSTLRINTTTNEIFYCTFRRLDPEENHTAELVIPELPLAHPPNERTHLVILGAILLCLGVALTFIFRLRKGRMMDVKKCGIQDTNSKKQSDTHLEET
The assay is described as follows: FACS competition on human PD-L1-CHO cells against biotin PD-1-Fc (1 μg/mL).

Assay [8] has as its target T7, 人PD-L1 (全长蛋白, on cells). Nature of the assay: FACS on human PD-L1-CHO cells, PE anti-human IgG Fc.
Assay [9] deals with T7, 人PD-L1 (全长蛋白, on cells). The assay is described as follows: FACS competition on human PD-L1-CHO cells against biotin CD80 (1 μg/mL).

T1 sequence (Q9EP73 19-290): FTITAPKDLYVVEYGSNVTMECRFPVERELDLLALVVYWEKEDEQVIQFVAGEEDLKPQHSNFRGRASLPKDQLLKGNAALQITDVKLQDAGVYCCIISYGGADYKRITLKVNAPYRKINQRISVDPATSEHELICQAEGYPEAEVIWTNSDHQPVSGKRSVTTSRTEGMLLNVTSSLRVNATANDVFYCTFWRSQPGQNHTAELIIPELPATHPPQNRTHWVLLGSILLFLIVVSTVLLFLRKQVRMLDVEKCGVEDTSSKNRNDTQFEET

B1: KN035 (Fc fusion)
chain: QVQLVESGGGLVQPGGSLRLSCAASGFTFSRRCKAWFRQAPGKERERVAKILTTSGSTYLADSVKGRFTISRDNSKNTVYLQMNSLRAEDTAVYYCAADSFEDPTCTLVTSSGAFQYWGQGTLVTVSS
notes: Control antibody made from the synthesised whole gene in ExpiCHO; the molecule is detected with anti-human IgG Fc; also called KN035(对照); 对照抗体KN035
Regarding B1, the binding result is reported as “no binding (tested: 20μg/mL)” in assay [1]; “no binding” in assay [2]; “no binding” in [3]; “no binding” in [4]; “no binding” in assay [5]. Further, the half-maximal effective concentration (EC50) amounted to 0.21 µg/mL in assay [6] and 0.39 µg/mL with 人PD-L1 (全长蛋白, on cells) [8]. For the same molecule, the IC50 in the assay with 人PD-L1 (全长蛋白, on cells) [7] was determined as 0.39 µg/mL; in the assay with 人PD-L1 (全长蛋白, on cells) [9], 0.631 µg/mL.

One may read the EC50 as the midpoint of the concentration-response curve. Usually IC50 stands for the midpoint of a concentration-inhibition curve.
